Experimental data taken from paper PMC11009412, “Pathogenic mutations of human phosphorylation sites affect protein–protein interactions” (Nature Communications, 2024).

System: BirA*-FLAG-GATAD1 variants in Flp-In-293 cells
Experiment: BioID proximity labelling of full-length GATAD1 variants (SILAC)
Format: cell-based, human
Conditions: GATAD1 WT vs S102P, significant proteins only; for Log2_Ratio.H.L.normalized.WT_S102P_forward: forward experiment (label swap performed, sign inverted against the H/L ratio); for Log2_Ratio.H.L.normalized.WT_S102P_forward / Log2_Ratio.H.L.normalized.WT_S102P_reverse: log2 of normalized H/L ratio; for Ratio.H.L.normalized.WT_S102P_forward: forward experiment; for Log2_Ratio.H.L.normalized.WT_S102P_reverse / Ratio.H.L.normalized.WT_S102P_reverse: reverse experiment
Excerpt: The GATAD1 gene variants were ordered in a pTwist ENTR Kozak vector from Twist Bioscience. The genes were then transferred to a pDEST_pcDNA5_BirA_FLAG_Nterm vector[97] using the Gateway Clonase II system (Thermo Fisher Scientific). The resulting vectors, pEXPR_GATAD1-WT_N-term_BirA_FLAG, pEXPR_GATAD1-S102P_N-term_BirA_FLAG, pEXPR_GATAD1-S102D_N-term_BirA_FLAG, and pEXPR_GATAD1-S102A_N-term_BirA_FLAG, were used to generate tetracycline-inducible stable Flp-In^TM-293 T-REx cells. A 6-well plate was co-transfected with 0.5 µg of the pEXPR plasmid and 1 µg of the pOG44 Flp-recombinase expression vector (Thermo Fisher Scientific) using 4.5 µg of PEI (Polysciences) as a transfection reagent. The following day, the cells were trypsinized and transferred to a 10 cm dish containing DMEM supplemented with 10% FCS and 200 µg/ml hygromycin B (Invivogen) for selection. The cells were cultured for approximately 18 days with media exchange every 3 days until visible colonies were observed. After around 18 days, the colonies were trypsinized and transferred to another 10 cm dish for further characterization and experiments.
Stable Flp-In^TM-293 cell lines expressing GATAD1 variants were cultured using SILAC light (Lys0, Arg0) and SILAC heavy (Lys8, Arg10) media, as explained in the cell culture section. After full labeling, cells were split into 15 cm dishes and were treated with 1 μg/mL tetracycline for 24 h to induce the expression of GATAD1. After the induction period, cells were incubated with 50 μM biotin overnight for proximity biotinylation. As a control, wild-type GATAD1 cells, without biotin or tetracycline addition, were used. Samples were multiplexed, as shown in Supplementary Fig. 41A with both forward and reverse label swap (n = 2). Cells were then lysed in lysis buffer (50 mM Tris-HCl pH 7.5, 150 mM NaCl, 1% Triton X-100, 1 mM EDTA, 1 mM EGTA, 0.1% SDS) with freshly added protease inhibitors and 1% sodium deoxycholate. To digest the excess DNA, 1 μl of Benzonase was added, and the samples were incubated for 20 min at 37 °C. Biotinylated proteins were enriched for 3 h at 4 °C using streptavidin-sepharose beads (GE Cat# 17-5113-01). Beads were pre-washed twice with 0.01% BSA and twice with lysis buffer. After enrichment, the beads were washed one time with lysis buffer, two times with washing buffer (50 mM HEPES-KOH pH 8.0, 100 mM KCl, 10% glycerol, 2 mM EDTA, 0.1% NP-40), and six times with 50 mM ammonium bicarbonate. Beads were resuspended in ammonium bicarbonate, and an on-bead protein digest with 1 μg of trypsin followed overnight. The next day, the digested proteins were transferred to a fresh tube and were incubated with 10 mM DTT for 30 min at 37 °C and with 55 mM iodoacetamide for 20 min at 37 °C in the dark. Samples were desalted with StageTips.
Peptides were separated using reversed-phase liquid chromatography (EASY nLC II 1200, Thermo Fisher Scientific) with self-made C18 microcolumns (20 cm long) packed with ReproSil-Pur C18-AQ 1.9 μm resin (Dr. Maisch, cat# r119.aq.0001). The chromatography system was coupled online to the electrospray ion source (Proxeon) of an Orbitrap Exploris 480 mass spectrometer (Thermo Fisher Scientific). The mobile phase consisted of buffer A (0.1% formic acid and 5% acetonitrile) and buffer B (0.1% formic acid and 80% acetonitrile). Peptides were eluted using a gradient with increasing concentrations of buffer B over 110 minutes, at a flow rate of 250 nl/min. Mass spectrometry data was acquired in data-dependent mode with settings for one full scan (resolution: 60,000; m/z range: 350–1600; normalized AGC target: 300%; maximum injection time: 10 ms), followed by top 20 MS/MS scans using higher-energy collisional dissociation (resolution: 15,000; m/z range: 200–2000; normalized AGC target: 100%; maximum injection time: 120 ms; isolation width: 1.3 m/z; normalized collision energy: 28%).
Raw files were analyzed with MaxQuant, version 2.0.3.0. […]

B1: TXNL1 (protein, UniProt O43396 2-289, looked up)
Thioredoxin-like protein 1: VGVKPVGSDPDFQPELSGAGSRLAVVKFTMRGCGPCLRIAPAFSSMSNKYPQAVFLEVDVHQCQGTAATNNISATPTFLFFRNKVRIDQYQGADAVGLEEKIKQHLENDPGSNEDTDIPKGYMDLMPFINKAGCECLNESDEHGFDNCLRKDTTFLESDCDEQLLITVAFNQPVKLYSMKFQGPDNGQGPKYVKIFINLPRSMDFEEAERSEPTQALELTEDDIKEDGIVPLRYVKFQNVNSVTIFVQSNQGEEETTRISYFTFIGTPVQATNMNDFKRVVGKKGESH
B1 gave a Log2_Ratio.H.L.normalized.WT_S102P_forward of 1.514, a Ratio.H.L.normalized.WT_S102P_forward of 0.3502 and a Log2_Ratio.H.L.normalized.WT_S102P_reverse of 1.19. The Ratio.H.L.normalized.WT_S102P_reverse was 2.2812.

B2: GSTP1 (protein, UniProt P09211 2-210, looked up)
Glutathione S-transferase P: PPYTVVYFPVRGRCAALRMLLADQGQSWKEEVVTVETWQEGSLKASCLYGQLPKFQDGDLTLYQSNTILRHLGRTLGLYGKDQQEAALVDMVNDGVEDLRCKYISLIYTNYEAGKDDYVKALPGQLKPFETLLSQNQGGKTFIVGDQISFADYNLLDLLLIHEVLAPGCLDAFPLLSAYVGRLSARPKLKAFLASPEYVNLPINGNGKQ
Molecule B2 has a Log2_Ratio.H.L.normalized.WT_S102P_forward of -1.4183, a Ratio.H.L.normalized.WT_S102P_forward of 2.6727 and a Log2_Ratio.H.L.normalized.WT_S102P_reverse of -1.579. The Ratio.H.L.normalized.WT_S102P_reverse was 0.3348.

B3: GTF2A1 (protein, UniProt P52655 2-376, looked up)
Transcription initiation …: ANSANTNTVPKLYRSVIEDVINDVRDIFLDDGVDEQVLMELKTLWENKLMQSRAVDGFHSEEQQLLLQVQQQHQPQQQQHHHHHHHQQAQPQQTVPQQAQTQQVLIPASQQATAPQVIVPDSKLIQHMNASNMSAAATAATLALPAGVTPVQQILTNSGQLLQVVRAANGAQYIFQPQQSVVLQQQVIPQMQPGGVQAPVIQQVLAPLPGGISPQTGVIIQPQQILFTGNKTQVIPTTVAAPTPAQAQITATGQQQPQAQPAQTQAPLVLQVDGTGDTSSEEDEDEEEDYDDDEEEDKEKDGAEDGQVEEEPLNSEDDVSDEEGQELFDTENVVVCQYDKIHRSKNKWKFHLKDGIMNLNGRDYIFSKAIGDAEW
Molecule B3 has a Log2_Ratio.H.L.normalized.WT_S102P_forward of 1.42, a Ratio.H.L.normalized.WT_S102P_forward of 0.3738 and a Log2_Ratio.H.L.normalized.WT_S102P_reverse of 1.224. It also gave a Ratio.H.L.normalized.WT_S102P_reverse of 2.3357.

B4: GTF2E1 (protein, UniProt P29083 2-439, looked up)
General transcription factor …: ADPDVLTEVPAALKRLAKYVIRGFYGIEHALALDILIRNSCVKEEDMLELLKFDRKQLRSVLNNLKGDKFIKCRMRVETAADGKTTRHNYYFINYRTLVNVVKYKLDHMRRRIETDERDSTNRASFKCPVCSSTFTDLEANQLFDPMTGTFRCTFCHTEVEEDESAMPKKDARTLLARFNEQIEPIYALLRETEDVNLAYEILEPEPTEIPALKQSKDHAATTAGAASLAGGHHREAWATKGPSYEDLYTQNVVINMDDQEDLHRASLEGKSAKERPIWLRESTVQGAYGSEDMKEGGIDMDAFQEREEGHAGPDDNEEVMRALLIHEKKTSSAMAGSVGAAAPVTAANGSDSESETSESDDDSPPRPAAVAVHKREEDEEEDDEFEEVADDPIVMVAGRPFSYSEVSQRPELVAQMTPEEKEAYIAMGQRMFEDLFE
With B4 the Log2_Ratio.H.L.normalized.WT_S102P_forward was 1.078, the Ratio.H.L.normalized.WT_S102P_forward was 0.4738 and the Log2_Ratio.H.L.normalized.WT_S102P_reverse was 1.217. It also gave a Ratio.H.L.normalized.WT_S102P_reverse of 2.3239.

B5: TMPO (protein, UniProt P42166 2-694, looked up)
Lamina-associated polypeptide …: PEFLEDPSVLTKDKLKSELVANNVTLPAGEQRKDVYVQLYLQHLTARNRPPLPAGTNSKGPPDFSSDEEREPTPVLGSGAAAAGRSRAAVGRKATKKTDKPRQEDKDDLDVTELTNEDLLDQLVKYGVNPGPIVGTTRKLYEKKLLKLREQGTESRSSTPLPTISSSAENTRQNGSNDSDRYSDNEEGKKKEHKKVKSTRDIVPFSELGTTPSGGGFFQGISFPEISTRPPLGSTELQAAKKVHTSKGDLPREPLVATNLPGRGQLQKLASERNLFISCKSSHDRCLEKSSSSSSQPEHSAMLVSTAASPSLIKETTTGYYKDIVENICGREKSGIQPLCPERSHISDQSPLSSKRKALEESESSQLISPPLAQAIRDYVNSLLVQGGVGSLPGTSNSMPPLDVENIQKRIDQSKFQETEFLSPPRKVPRLSEKSVEERDSGSFVAFQNIPGSELMSSFAKTVVSHSLTTLGLEVAKQSQHDKIDASELSFPFHESILKVIEEEWQQVDRQLPSLACKYPVSSREATQILSVPKVDDEILGFISEATPLGGIQAASTESCNQQLDLALCRAYEAAASALQIATHTAFVAKAMQADISQAAQILSSDPSRTHQALGILSKTYDAASYICEAAFDEVKMAAHTMGNATVGRRYLWLKDCKINLASKNKLASTPFKGGTLFGGEVCKVIKKRGNKH
B5 was tested, and the Log2_Ratio.H.L.normalized.WT_S102P_forward was 1.365, the Ratio.H.L.normalized.WT_S102P_forward was 0.3882 and the Log2_Ratio.H.L.normalized.WT_S102P_reverse was 1.174. It also gave a Ratio.H.L.normalized.WT_S102P_reverse of 2.2568.

B6: TOX4 (protein, UniProt O94842 1-621, looked up)
TOX high mobility group box …: MEFPGGNDNYLTITGPSHPFLSGAETFHTPSLGDEEFEIPPISLDSDPSLAVSDVVGHFDDLADPSSSQDGSFSAQYGVQTLDMPVGMTHGLMEQGGGLLSGGLTMDLDHSIGTQYSANPPVTIDVPMTDMTSGLMGHSQLTTIDQSELSSQLGLSLGGGTILPPAQSPEDRLSTTPSPTSSLHEDGVEDFRRQLPSQKTVVVEAGKKQKAPKKRKKKDPNEPQKPVSAYALFFRDTQAAIKGQNPNATFGEVSKIVASMWDSLGEEQKQVYKRKTEAAKKEYLKALAAYKDNQECQATVETVELDPAPPSQTPSPPPMATVDPASPAPASIEPPALSPSIVVNSTLSSYVANQASSGAGGQPNITKLIITKQMLPSSITMSQGGMVTVIPATVVTSRGLQLGQTSTATIQPSQQAQIVTRSVLQAAAAAAAAASMQLPPPRLQPPPLQQMPQPPTQQQVTILQQPPPLQAMQQPPPQKVRINLQQQPPPLQIKSVPLPTLKMQTTLVPPTVESSPERPMNNSPEAHTVEAPSPETICEMITDVVPEVESPSQMDVELVSGSPVALSPQPRCVRSGCENPPIVSKDWDNEYCSNECVVKHCRDVFLAWVASRNSNTVVFVK
Work on B6 yielded a Log2_Ratio.H.L.normalized.WT_S102P_forward of 1.265, a Ratio.H.L.normalized.WT_S102P_forward of 0.416 and a Log2_Ratio.H.L.normalized.WT_S102P_reverse of 1.044. It also gave a Ratio.H.L.normalized.WT_S102P_reverse of 2.0619.

B7: GTF2E2 (protein, UniProt P29084 1-291, looked up)
Transcription initiation …: MDPSLLRERELFKKRALSTPVVEKRSASSESSSSSSKKKKTKVEHGGSSGSKQNSDHSNGSFNLKALSGSSGYKFGVLAKIVNYMKTRHQRGDTHPLTLDEILDETQHLDIGLKQKQWLMTEALVNNPKIEVIDGKYAFKPKYNVRDKKALLRLLDQHDQRGLGGILLEDIEEALPNSQKAVKALGDQILFVNRPDKKKILFFNDKSCQFSVDEEFQKLWRSVTVDSMDEEKIEEYLKRQGISSMQESGPKKVAPIQRRKKPASQKKRRFKTHNEHLAGVLKDYSDITSSK
For B7, the Log2_Ratio.H.L.normalized.WT_S102P_forward was 1.243, the Ratio.H.L.normalized.WT_S102P_forward was 0.4226 and the Log2_Ratio.H.L.normalized.WT_S102P_reverse was 1.178. The Ratio.H.L.normalized.WT_S102P_reverse was 2.2619.
